First the molecules themselves.
B1: COUP transcription factor 1, residues 83 to 159; numbered along this chain, P10589 (parent)
chain: HIECVVCGDKSSGKHYGQFTCEGCKSFFKRSVRRNLTYTCRANRNCPIDQHHRNQCQYCRLKKCLKVGMRREAVQRG

± gives the uncertainty stated by the source.

This data set covers variants of B1. The data set is described as follows: abundance fitness (aPCA) (normalised: wild type 0, dead -1); higher = more abundant; growth selection in yeast, the domain comes from the species named. The conditions noted are these: Homo sapiens.
HIECVVCGDKSSGKHYGQFTCEGCKSFFKRSVRRNLTYTCRANRNCPIEQHHRNQCQYCRLKKCLKVGMRREAVQRG: the abundance fitness is -0.064 ± 0.076.
Next, HIECVVCGDKSSGKHYGQFTCEGCKSFFKRSVRRNLTYTCRANRNWPIDQHHRNQCQYCRLKKCLKVGMRREAVQRG: -0.779 ± 0.11; HIECVVCGDKSSGKHYGQFTCEGCKSFFKRSVRRNLTYTCRANRNCPIDQAHRNQCQYCRLKKCLKVGMRREAVQRG: 0.039 ± 0.044; HIECVVCGDKSSGKHYGQFTCEGCKSFFKRSVRRNLTYTCRANRNCPIDQCHRNQCQYCRLKKCLKVGMRREAVQRG: -0.118 ± 0.064.
Consider HIECVVCGDKSSGKHYGQFTCEGCKSFFKRSVRRNLTYTCRANRNCGIDQHHRNQCQYCRLKKCLKVGMRREAVQRG, for which the abundance fitness was -0.153 ± 0.044.
On to HIECVVCGDKSSGKHYGQFTCEGCKSFFKRSVRRNLTYTCRANRNCKIDQHHRNQCQYCRLKKCLKVGMRREAVQRG, for which the abundance fitness is -0.035 ± 0.079.
With HIECVVCGDKSSGKHYGQFTCEGCKSFFKRSVRRNLTYTCRANRNCLIDQHHRNQCQYCRLKKCLKVGMRREAVQRG, the abundance fitness was -0.141 ± 0.056.
Then HIECVVCGDKSSGKHYGQFTCEGCKSFFKRSVRRNLTYTCRANRNCNIDQHHRNQCQYCRLKKCLKVGMRREAVQRG, with -0.679 ± 0.22; and HIECVVCGDKSSGKHYGQFTCEGCKSFFKRSVRRNLTYTCRANRNCHIDQHHRNQCQYCRLKKCLKVGMRREAVQRG, with -0.296 ± 0.12; and HIECVVCGDKSSGKHYGQFTCEGCKSFFKRSVRRNLTYTCRANRNCSIDQHHRNQCQYCRLKKCLKVGMRREAVQRG, with -0.172 ± 0.063.
Then HIECVVCGDKSSGKHYGQFTCEGCKSFFKRSVRRNLTYTCRANRNCTIDQHHRNQCQYCRLKKCLKVGMRREAVQRG, with -0.14 ± 0.063.
For HIECVVCGDKSSGKHYGQFTCEGCKSFFKRSVRRNLTYTCRANRNCDIDQHHRNQCQYCRLKKCLKVGMRREAVQRG, the abundance fitness was -0.271 ± 0.12.
Then HIECVVCGDKSSGKHYGQFTCEGCKSFFKRSVRRNLTYTCRANRNCIIDQHHRNQCQYCRLKKCLKVGMRREAVQRG, with -0.137 ± 0.12.
Then HIECVVCGDKSSGKHYGQFTCEGCKSFFKRSVRRNLTYTCRANRNCWIDQHHRNQCQYCRLKKCLKVGMRREAVQRG, with -0.217 ± 0.062; and HIECVVCGDKSSGKHYGQFTCEGCKSFFKRSVRRNLTYTCRANRNCFIDQHHRNQCQYCRLKKCLKVGMRREAVQRG, with -0.023 ± 0.1; and HIECVVCGDKSSGKHYGQFTCEGCKSFFKRSVRRNLTYTCRANRNCVIDQHHRNQCQYCRLKKCLKVGMRREAVQRG, with -0.003 ± 0.049.
Next, HIECVVCGDKSSGKHYGQFTCEGCKSFFKRSVRRNLTYTCRANRNCCIDQHHRNQCQYCRLKKCLKVGMRREAVQRG: -0.206 ± 0.085; HIECVVCGDKSSGKHYGQFTCEGCKSFFKRSVRRNLTYTCRANRNCRIDQHHRNQCQYCRLKKCLKVGMRREAVQRG: -0.188 ± 0.044; HIECVVCGDKSSGKHYGQFTCEGCKSFFKRSVRRNLTYTCRANRNCAIDQHHRNQCQYCRLKKCLKVGMRREAVQRG: -0.008 ± 0.045.
As for HIECVVCGDKSSGKHYGQFTCEGCKSFFKRSVRRNLTYTCRANRNCMIDQHHRNQCQYCRLKKCLKVGMRREAVQRG, the abundance fitness was -0.267 ± 0.071.
Take HIECVVCGDKSSGKHYGQFTCEGCKSFFKRSVRRNLTYTCRANRNCPIDSHHRNQCQYCRLKKCLKVGMRREAVQRG: the abundance fitness was -0.086 ± 0.054.
As for HIECVVCGDKSSGKHYGQFTCEGCKSFFKRSVRRNLTYTCRANRNCPIDTHHRNQCQYCRLKKCLKVGMRREAVQRG, the abundance fitness was -0.076 ± 0.069.
Regarding HIECVVCGDKSSGKHYGQFTCEGCKSFFKRSVRRNLTYTCRANRNCPIDMHHRNQCQYCRLKKCLKVGMRREAVQRG, the abundance fitness is -0.088 ± 0.062.
Take HIECVVCGDKSSGKHYGQFTCEGCKSFFKRSVRRNLTYTCRANRNCPIDDHHRNQCQYCRLKKCLKVGMRREAVQRG: the abundance fitness is 0.03 ± 0.071.
For HIECVVCGDKSSGKHYGQFTCEGCKSFFKRSVRRNLTYTCRANRNCPIDVHHRNQCQYCRLKKCLKVGMRREAVQRG, the abundance fitness is -0.086 ± 0.041.
As for HIECVVCGDKSSGKHYGQFTCEGCKSFFKRSVRRNLTYTCRANRNCPIDAHHRNQCQYCRLKKCLKVGMRREAVQRG, the abundance fitness came out at 0.063 ± 0.037.
Next, HIECVVCGDKSSGKHYGQFTCEGCKSFFKRSVRRNLTYTCRANRNCPIDNHHRNQCQYCRLKKCLKVGMRREAVQRG: 0.012 ± 0.11; HIECVVCGDKSSGKHYGQFTCEGCKSFFKRSVRRNLTYTCRANRNCPIDEHHRNQCQYCRLKKCLKVGMRREAVQRG: 0.05 ± 0.044; HIECVVCGDKSSGKHYGQFTCEGCKSFFKRSVRRNLTYTCRANRNCPIDFHHRNQCQYCRLKKCLKVGMRREAVQRG: -0.299 ± 0.17.
Take HIECVVCGDKSSGKHYGQFTCEGCKSFFKRSVRRNLTYTCRANRNCPIDKHHRNQCQYCRLKKCLKVGMRREAVQRG: the abundance fitness was 0.097 ± 0.062.
Then HIECVVCGDKSSGKHYGQFTCEGCKSFFKRSVRRNLTYTCRANRNCPIDYHHRNQCQYCRLKKCLKVGMRREAVQRG, with -0.066 ± 0.1; and HIECVVCGDKSSGKHYGQFTCEGCKSFFKRSVRRNLTYTCRANRNCPIDRHHRNQCQYCRLKKCLKVGMRREAVQRG, with -0.119 ± 0.036; and HIECVVCGDKSSGKHYGQFTCEGCKSFFKRSVRRNLTYTCRANRNCPIDIHHRNQCQYCRLKKCLKVGMRREAVQRG, with 0.117 ± 0.089.
Then HIECVVCGDKSSGKHYGQFTCEGCKSFFKRSVRRNLTYTCRANRNCPIDWHHRNQCQYCRLKKCLKVGMRREAVQRG, with -0.06 ± 0.05.
In the case of HIECVVCGDKSSGKHYGQFTCEGCKSFFKRSVRRNLTYTCRANRNCPIDGHHRNQCQYCRLKKCLKVGMRREAVQRG, the abundance fitness was -0.149 ± 0.035.
Then HIECVVCGDKSSGKHYGQFTCEGCKSFFKRSVRRNLTYTCRANRNCPIDCHHRNQCQYCRLKKCLKVGMRREAVQRG, with -0.078 ± 0.071.

These data come from the Human Domainome abundance scans (Beltran et al. 2025).
